Results on 7 molecules are retold here after patent US20090022738A1 (MICROMET, published 2009).

Assay [1] has as its target T1, human CD3 (human, UniProt P07766 23-207; P04234 22-171; P09693 23-182).
T1 construct: whole, on cells; also called CD3 antigen; human CD3 complex
Put plainly: FACS on CD3-enriched PBMCs.

Assay [2] concerns the target T1, human CD3. Put plainly: FACS, second experiment, crude supernatant on CD3-enriched PBMCs. The protocol: (§1) In order to analyze the binding efficacy of the deimmunized constructs to CD3 and CD19 a FACS-based assay was performed. Initially, crude supernatants were tested for binding on CD3-enriched PBMCs or CD19-positive NALM-6 cells. Cells were incubated with non-diluted supernatants for 30 minutes at 8° C. Upon two wash steps the cells were labeled with an anti-His antibody (Qiagen) under the same conditions. After additional wash steps binding of the constructs was detected with a FITC-conjugated sheep anti-mouse antibody (Sigma). Cells were analyzed with a FACS Calibur cytometer (B&D). As controls supernatants of anti-CD19×anti-CD3 and GFP-transfected cells were included. […] The positive control, which was a non-deimmunized anti-CD19×anti-CD3 construct reached a MFI of around 60 showing that the deimmunized constructs comprising anti-CD3 (VH5/VL1) (SEQ ID NO.:190), anti-CD3 (VH5/VL2) (SEQ ID NO.:192), anti-CD3 (VH5/VL3) (SEQ ID NO.:194), anti-CD3 (VH7/VL1) (SEQ ID NO.:196), anti-CD3 (VH7/VL2) (SEQ ID NO.:198) and anti-CD3 (VH7/VL3) (SEQ ID NO.:200) bound CD3 with extremely high efficacy.
For orientation: Flow cytometry measures light scatter and fluorescence of single cells or particles in a stream.

A further assay deals with T2, CD19 (human, UniProt P15391 20-556).
T2 construct: whole, on cells; also called CD19 on NALM-6 cells
T2 sequence (looked up): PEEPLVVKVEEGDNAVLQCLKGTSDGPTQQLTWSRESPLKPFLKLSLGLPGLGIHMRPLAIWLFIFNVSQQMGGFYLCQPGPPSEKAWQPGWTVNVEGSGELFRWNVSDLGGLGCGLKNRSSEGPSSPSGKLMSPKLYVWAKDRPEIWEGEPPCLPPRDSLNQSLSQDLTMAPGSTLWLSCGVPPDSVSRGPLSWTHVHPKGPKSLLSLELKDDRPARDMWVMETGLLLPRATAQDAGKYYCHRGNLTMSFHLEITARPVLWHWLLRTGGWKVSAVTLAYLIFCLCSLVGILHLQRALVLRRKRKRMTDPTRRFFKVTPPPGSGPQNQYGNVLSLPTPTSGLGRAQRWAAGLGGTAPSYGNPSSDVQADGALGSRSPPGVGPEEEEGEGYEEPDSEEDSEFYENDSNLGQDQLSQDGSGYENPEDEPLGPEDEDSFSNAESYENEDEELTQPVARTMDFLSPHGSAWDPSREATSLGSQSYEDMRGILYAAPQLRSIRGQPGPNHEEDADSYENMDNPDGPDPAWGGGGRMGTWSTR
Briefly: FACS, crude supernatant on CD19-positive NALM-6 cells; negative control MFI ca. 3. The protocol: as §1
The FACS-based binding assay was also carried out for CD19. In this experiment CD19 and a secondary antibody was as a negative control. In this experiment, all assayed constructs achieved a MFI of at least 80 while the MFI of the negative control was ca. 3.

Assay [3] concerns the target T1, human CD3. Put plainly: FACS, non-diluted crude supernatant on CD3-enriched PBMCs; anti-His + FITC anti-mouse. Here is the method: as §1

A value given as a limit tells only on which side of the number the result lay.

B1: anti-CD19×anti-CD3 (VH2/VL2) (SEQ ID NO.:180) (bispecific antibody)
chain: DIQLTQSPASLAVSLGQRATISCKASQSVDYDGDSYLNWYQQIPGQPPKLLIYDASNLVSGIPPRFSGSGSGTDFTLNIHPVEKVDAATYHCQQSTEDPWTFGGGTKLEIKGGGGSGGGGSGGGGSQVQLQQSGAELVRPGSSVKISCKASGYAFSSYWMNWVKQRPGQGLEWIGQIWPGDGDTNYNGKFKGKATLTADESSSTAYMQLSSLASEDSAVYFCARRETTTVGRYYYAMDYWGQGTTVTVSSGGGGSDVQLVQSGAEVKKPGASVKVSCKASGYTATRYTMHWVRQAPGQGLEWIGYINPSRGYTNYAQKLQGRVTMTTDTSTSTAYMELSSLRSEDTATYYCARYYDDHYCLDYWGQGTTVTVSSGEGTSTGSGGSGGSGGADDIVLTQSPATLSLSPGERATLSCRASQSVSYMNWYQQKPGKAPKRWIYDTSKVASGVPARFSGSGSGTDYSLTINSLEAEDAATYYCQQWSSNPLTFGGGTKVEIK
notes: As m4: bispecific single chain, His-tagged; also called pEF anti-CD19×anti-CD3 (VH2/VL2)
In the case of B1, the binding result with human CD3 [1] was “no binding (tested: non-diluted supernatant)”. Besides, the results for the MFI with human CD3 [2] and with CD19 were approximately 6 MFI and not below 80 MFI, respectively.

B2: anti-CD19×anti-CD3 (VH5/VL3) (SEQ ID NO.:194) (bispecific antibody)
chain: DIQLTQSPASLAVSLGQRATISCKASQSVDYDGDSYLNWYQQIPGQPPKLLIYDASNLVSGIPPRFSGSGSGTDFTLNIHPVEKVDAATYHCQQSTEDPWTFGGGTKLEIKGGGGSGGGGSGGGGSQVQLQQSGAELVRPGSSVKISCKASGYAFSSYWMNWVKQRPGQGLEWIGQIWPGDGDTNYNGKFKGKATLTADESSSTAYMQLSSLASEDSAVYFCARRETTTVGRYYYAMDYWGQGTTVTVSSGGGGSDVQLVQSGAEVKKPGASVKVSCKASGYTFTRYTMHWVRQAPGQGLEWIGYINPSRGYTNYADSVKGRFTITTDKSTSTAYMELSSLRSEDTATYYCARYYDDHYCLDYWGQGTTVTVSSGEGTSTGSGGSGGSGGADDIVLTQSPATLSLSPGERATLTCRASSSVSYMNWYQQKPGKAPKRWIYDTSKVASGVPARFSGSGSGTDYSLTINSLEAEDAATYYCQQWSSNPLTFGGGTKVEIK
notes: As m4: bispecific single chain, His-tagged; also called pEF anti-CD19×anti-CD3 (VH5/VL3)
On to B2, for which the figures for the MFI with CD19 and in the assay with human CD3 [3] were not below 80 MFI and not below 90 MFI, respectively. Moreover, the “fold over the negative control (secondary antibody only, MFI ca. 3.5)” value with human CD3 [3] was approximately 25 fold.

B3: anti-CD19×anti-CD3 (VH3/VL3) (SEQ ID NO.:188) (bispecific antibody)
chain: DIQLTQSPASLAVSLGQRATISCKASQSVDYDGDSYLNWYQQIPGQPPKLLIYDASNLVSGIPPRFSGSGSGTDFTLNIHPVEKVDAATYHCQQSTEDPWTFGGGTKLEIKGGGGSGGGGSGGGGSQVQLQQSGAELVRPGSSVKISCKASGYAFSSYWMNWVKQRPGQGLEWIGQIWPGDGDTNYNGKFKGKATLTADESSSTAYMQLSSLASEDSAVYFCARRETTTVGRYYYAMDYWGQGTTVTVSSGGGGSDVQLVQSGAEVKKPGASVKVSCKASGYTATRYTMHWVRQAPGQGLEWIGYINPSRGYTNYAQKLQGRVTMTTDTSTSTAYLQMNSLKTEDTAVYYCARYYDDHYCLDYWGQGTTVTVSSGEGTSTGSGGSGGSGGADDIVLTQSPATLSLSPGERATLTCRASSSVSYMNWYQQKPGKAPKRWIYDTSKVASGVPARFSGSGSGTDYSLTINSLEAEDAATYYCQQWSSNPLTFGGGTKVEIK
notes: As m4: bispecific single chain, His-tagged; also called pEF anti-CD19×anti-CD3 (VH3/VL3)
Take B3: the binding result with human CD3 [1] was “no binding (tested: non-diluted supernatant)”. Further, the MFI in the assay with human CD3 [2] is approximately 6 MFI; with CD19, not below 80 MFI.

B4: anti-CD19×anti-CD3 (VH3/VL2) (SEQ ID NO.:186) (bispecific antibody)
chain: DIQLTQSPASLAVSLGQRATISCKASQSVDYDGDSYLNWYQQIPGQPPKLLIYDASNLVSGIPPRFSGSGSGTDFTLNIHPVEKVDAATYHCQQSTEDPWTFGGGTKLEIKGGGGSGGGGSGGGGSQVQLQQSGAELVRPGSSVKISCKASGYAFSSYWMNWVKQRPGQGLEWIGQIWPGDGDTNYNGKFKGKATLTADESSSTAYMQLSSLASEDSAVYFCARRETTTVGRYYYAMDYWGQGTTVTVSSGGGGSDVQLVQSGAEVKKPGASVKVSCKASGYTATRYTMHWVRQAPGQGLEWIGYINPSRGYTNYAQKLQGRVTMTTDTSTSTAYLQMNSLKTEDTAVYYCARYYDDHYCLDYWGQGTTVTVSSGEGTSTGSGGSGGSGGADDIVLTQSPATLSLSPGERATLSCRASQSVSYMNWYQQKPGKAPKRWIYDTSKVASGVPARFSGSGSGTDYSLTINSLEAEDAATYYCQQWSSNPLTFGGGTKVEIK
notes: As m4: bispecific single chain, His-tagged; also called pEF anti-CD19×anti-CD3 (VH3/VL2)
For the molecule B4, the binding result in the assay with human CD3 [1] is on record as “no binding (tested: non-diluted supernatant)”. Besides, the MFI in the assay with human CD3 [2] is approximately 6 MFI; with CD19, not below 80 MFI.

B5: anti-CD19×anti-CD3 (VH2/VL1) (SEQ ID NO.:178) (bispecific antibody)
chain: DIQLTQSPASLAVSLGQRATISCKASQSVDYDGDSYLNWYQQIPGQPPKLLIYDASNLVSGIPPRFSGSGSGTDFTLNIHPVEKVDAATYHCQQSTEDPWTFGGGTKLEIKGGGGSGGGGSGGGGSQVQLQQSGAELVRPGSSVKISCKASGYAFSSYWMNWVKQRPGQGLEWIGQIWPGDGDTNYNGKFKGKATLTADESSSTAYMQLSSLASEDSAVYFCARRETTTVGRYYYAMDYWGQGTTVTVSSGGGGSDVQLVQSGAEVKKPGASVKVSCKASGYTATRYTMHWVRQAPGQGLEWIGYINPSRGYTNYAQKLQGRVTMTTDTSTSTAYMELSSLRSEDTATYYCARYYDDHYCLDYWGQGTTVTVSSGEGTSTGSGGSGGSGGADDIQMTQSPSSLSASVGDRVTITCRASQSVSYMNWYQQKPGKAPKRWIYDTSKVASGVPARFSGSGSGTDYSLTINSLEAEDAATYYCQQWSSNPLTFGGGTKVEIK
notes: also called pEF anti-CD19×anti-CD3 (VH2/VL1)
With B5, the binding result with human CD3 [1] is “no binding (tested: non-diluted supernatant)”. Further, the results for the MFI with human CD3 [2] and with CD19 were approximately 6 MFI and not below 80 MFI, respectively.

B6: anti-CD19×anti-CD3 (VH5/VL2) (SEQ ID NO.:192) (bispecific antibody)
chain: DIQLTQSPASLAVSLGQRATISCKASQSVDYDGDSYLNWYQQIPGQPPKLLIYDASNLVSGIPPRFSGSGSGTDFTLNIHPVEKVDAATYHCQQSTEDPWTFGGGTKLEIKGGGGSGGGGSGGGGSQVQLQQSGAELVRPGSSVKISCKASGYAFSSYWMNWVKQRPGQGLEWIGQIWPGDGDTNYNGKFKGKATLTADESSSTAYMQLSSLASEDSAVYFCARRETTTVGRYYYAMDYWGQGTTVTVSSGGGGSDVQLVQSGAEVKKPGASVKVSCKASGYTFTRYTMHWVRQAPGQGLEWIGYINPSRGYTNYADSVKGRFTITTDKSTSTAYMELSSLRSEDTATYYCARYYDDHYCLDYWGQGTTVTVSSGEGTSTGSGGSGGSGGADDIVLTQSPATLSLSPGERATLSCRASQSVSYMNWYQQKPGKAPKRWIYDTSKVASGVPARFSGSGSGTDYSLTINSLEAEDAATYYCQQWSSNPLTFGGGTKVEIK
notes: As m4: bispecific single chain, His-tagged; also called pEF anti-CD19×anti-CD3 (VH5/VL2); anti-CD3 (VH5/VK2)
In turn, B6 came in with an MFI with CD19 not below 80 MFI. Also, in the assay with human CD3 [3], the MFI is not below 90 MFI and the “fold over the negative control (secondary antibody only, MFI ca. 3.5)” value was approximately 25 fold.

B7: anti-CD19×anti-CD3 (VH2/VL3) (SEQ ID NO.:182) (bispecific antibody)
chain: DIQLTQSPASLAVSLGQRATISCKASQSVDYDGDSYLNWYQQIPGQPPKLLIYDASNLVSGIPPRFSGSGSGTDFTLNIHPVEKVDAATYHCQQSTEDPWTFGGGTKLEIKGGGGSGGGGSGGGGSQVQLQQSGAELVRPGSSVKISCKASGYAFSSYWMNWVKQRPGQGLEWIGQIWPGDGDTNYNGKFKGKATLTADESSSTAYMQLSSLASEDSAVYFCARRETTTVGRYYYAMDYWGQGTTVTVSSGGGGSDVQLVQSGAEVKKPGASVKVSCKASGYTATRYTMHWVRQAPGQGLEWIGYINPSRGYTNYAQKLQGRVTMTTDTSTSTAYMELSSLRSEDTATYYCARYYDDHYCLDYWGQGTTVTVSSGEGTSTGSGGSGGSGGADDIVLTQSPATLSLSPGERATLTCRASSSVSYMNWYQQKPGKAPKRWIYDTSKVASGVPARFSGSGSGTDYSLTINSLEAEDAATYYCQQWSSNPLTFGGGTKVEIK
notes: As m4: bispecific single chain, His-tagged; also called pEF anti-CD19×anti-CD3 (VH2/VL3)
In the case of B7, the binding result with human CD3 [1] is reported as “no binding (tested: non-diluted supernatant)”. For the same molecule, the MFI was approximately 6 MFI with human CD3 [2] and not below 80 MFI with CD19.
